Assay results as given in patent US20130330359A1 (AbbVie / Abbott, published 2013).

Tests used:
[1] = biological target: T1, RGMc antigen: amino acids 33-391 of RGMc followed by human Fc (human, UniProt Q6ZVN8 33-391); experiment: … two-step sandwich chemiluminescent assay; 1A-2493-121 on microparticles as capture, goat polyclonal AF3720 CPSP conjugate as detection
T1 construct: also called RGMc-huFc; RGMc-Fc; not shown: human Fc
T1 sequence: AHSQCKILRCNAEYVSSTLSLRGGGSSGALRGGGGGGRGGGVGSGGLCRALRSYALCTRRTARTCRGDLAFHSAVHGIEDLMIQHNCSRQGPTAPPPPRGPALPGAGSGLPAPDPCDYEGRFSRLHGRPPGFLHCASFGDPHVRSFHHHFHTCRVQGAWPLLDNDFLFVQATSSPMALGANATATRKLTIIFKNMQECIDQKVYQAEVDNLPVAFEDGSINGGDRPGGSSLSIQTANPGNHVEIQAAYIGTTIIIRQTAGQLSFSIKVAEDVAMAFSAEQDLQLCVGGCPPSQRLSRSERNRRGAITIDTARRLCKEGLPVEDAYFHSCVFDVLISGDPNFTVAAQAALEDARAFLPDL
Method: The Architect assay is a two-step assay format, wherein a 30 μl sample is mixed with 50 μl of line diluent. […] At the end of 18 minutes, unbound sample is washed away. 50 μl of R&D System Goat polyclonal AF3720 CPSP conjugate at 800 ng/mL was added to the mixture, vortexed, and incubated for 4 minutes. […] The relative light units are then measured.

[2] = biological target: T2, carrier free RGMc (R&D Systems) (human, UniProt Q6ZVN8 36-400); experiment: … two-step sandwich chemiluminescent assay; 1A-2493-121 on microparticles as capture, goat polyclonal AF3720 conjugate as detection
T2 construct: also called RGMc-CF
T2 sequence (looked up): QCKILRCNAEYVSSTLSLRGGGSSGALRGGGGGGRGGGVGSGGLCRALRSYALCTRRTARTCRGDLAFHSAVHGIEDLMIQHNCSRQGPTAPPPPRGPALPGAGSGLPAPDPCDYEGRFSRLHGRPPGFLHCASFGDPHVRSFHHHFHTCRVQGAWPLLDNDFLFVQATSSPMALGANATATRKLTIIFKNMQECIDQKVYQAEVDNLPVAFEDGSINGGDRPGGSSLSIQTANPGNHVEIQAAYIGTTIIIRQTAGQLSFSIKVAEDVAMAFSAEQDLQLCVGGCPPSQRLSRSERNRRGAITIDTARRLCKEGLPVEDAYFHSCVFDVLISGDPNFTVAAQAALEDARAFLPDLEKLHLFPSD

[3] = biological target: T3, carrier free RGMa (R&D Systems) (UniProt Q96B86 48-422, limits assumed); experiment: EIA on coated carrier-free RGMa (summary of specificity)
T3 construct: also called RGMa-CF
T3 sequence (looked up): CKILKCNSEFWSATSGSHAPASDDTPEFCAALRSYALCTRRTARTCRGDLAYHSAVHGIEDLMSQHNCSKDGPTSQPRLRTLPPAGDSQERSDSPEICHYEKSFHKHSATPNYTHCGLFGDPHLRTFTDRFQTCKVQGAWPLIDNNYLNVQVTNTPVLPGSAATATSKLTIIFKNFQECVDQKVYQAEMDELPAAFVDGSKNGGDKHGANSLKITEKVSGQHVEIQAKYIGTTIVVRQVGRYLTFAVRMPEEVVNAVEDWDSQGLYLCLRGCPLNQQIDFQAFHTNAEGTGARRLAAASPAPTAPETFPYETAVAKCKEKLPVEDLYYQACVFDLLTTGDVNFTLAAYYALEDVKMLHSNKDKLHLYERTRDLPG
Method: (§1) Clones were then tested for cross-reactivity with RGMa and RGMb by EIA. Carrier free RGMa, RGMb, or RGMc (R&D Systems) was coated on the solid phase of micro-titer EIA plates at 0.5 ug/mL. After the antigen had been coated on the solid phase, it was removed and any open binding sites on the plates were blocked using fish gel block solution. The wells were washed with distilled water following this incubation. Cell supernatants and control reagents were added to the blocked plates and allowed to incubate at room temperature for at least one hour. The negative control was a purified mouse mAb from a different antigen system. The positive control for RGMa, RGMb, & RGMc was a goat anti-RGMa, RGMb, or RGMc polyclonal antibody (R&D Systems). Following this incubation, the solutions were removed from the plates and they were washed with distilled water. Donkey anti-Goat IgG-HRPO diluted to approximately 200 ng/mL in block solution was added to the plates with the positive control test samples and goat anti-mouse IgG-HRPO (Jackson Immunoresearch) diluted to approximately 200 ng/mL in block solution was added to the plates with the fusion #1 test samples. All plates were allowed to incubate for 30 minutes at room temperature. The plates were washed with distilled water and o-phenylenediamine substrate was used as the chromogen to generate signal. Plates were read at 492 nm and the results were analyzed.

[4] = biological target: T1, RGMc antigen: amino acids 33-391 of …; experiment: chemiluminescence immunoassay: supernatant mAb captured on sheep anti-mouse IgG Fc, RGMc-huFc at 200 ng/mL, acridinium-labeled goat anti-RGMc detection
Method: Cell supernatant samples were analyzed for anti-RGMc antibodies by Chemiluminescence immunoassay (CIA). Sheep anti-mouse IgG Fc (Jackson Immunoresearch, West Grove, Pa.) was coated on 96 well micro-titer CIA plates (NUNC) at 5 ug/mL. After the capture reagent had been coated on the solid phase, it was removed and any open binding sites on the plates were blocked using a Fish gel/PBS (2% v/v) block solution. The wells were washed with distilled water and cell supernatants were added to the blocked plates and allowed to incubate at room temperature for at least one hour. The anti-mouse IgG Fc captures the anti-RGMc mouse antibody from the supernatant. Following the incubation, the supernatants were washed off using distilled water. A mouse/human IgG chimeric antibody (Abbott Laboratories) diluted in fish gel block to 5 ug/ml was added to each well and incubated for approximately 30 minutes at room temperature to block any captured mAbs that are specific for human IgG Fc portion of the immunogen. Following the incubation, the human IgG blocking solution was washed off using distilled water. RGMc-huFc antigen was then added to the plates at 200 ng/mL in fish gel block and incubated for 30 minutes at room temperature. Following this incubation, the antigen was washed from the plates using distilled water. Acridinium labeled goat anti-RGMc polyclonal antibody (R&D Systems, Minneapolis, Minn.) was diluted to 200 ng/ml in fish gel block, then added to the plates and allowed to incubate for 30 minutes at room temperature. The plates were washed with distilled water then processed on the Microbeta Jet instrument (Perkin Elmer, Waltham, Mass.). The Microbeta Jet adds Architect© Pre-Trigger and Trigger solutions (Abbott Laboratories). The plates are then read for flash chemiluminescence in luminescent counts per second (LCPS). […] The positive control (PC) used in this assay was spent medium from unfused splenocytes harvested from mouse #814 that were cultured for 7 to 10 days at 37° C.

[5] = biological target: T1, RGMc antigen: amino acids 33-391 of …; experiment: direct EIA: RGMc-huFc coated at 1.0 ug/mL; supernatant diluted 1:125; goat anti-mouse IgG Fc-HRPO
Method: (§2) A mouse:human chimeric antibody or RGMc-huFc was coated on the solid phase of micro-titer EIA plates at 1.0 ug/mL. After the antigen had been coated on the solid phase, it was removed and any open binding sites on the plates were blocked using BSA block solution. The wells were washed with distilled water. Cell supernatants and control reagents were added to the blocked plates and allowed to incubate at room temperature for at least one hour. The negative control was a purified mAb from a different antigen system. The positive control for human IgG was a purified anti-hu IgG mAb developed against another antigen containing human IgG Fc carrier protein. The RGMc positive control is Novus mab 1C12. Following this incubation, the solutions were removed from the plates and they were washed with distilled water. Goat anti-mouse IgG Fc-HRPO (Jackson Immunoresearch) diluted to approximately 200 ng/mL in block solution was added to the plates and allowed to incubate for 30 minutes at room temperature. The plates were washed with distilled water and o-phenylenediamine substrate (Abbott Laboratories) was used as the chromogen to generate signal. Plates were read at 492 nm and the results were analyzed.

[6] = biological target: T4, carrier free RGMb (R&D Systems) (UniProt Q6NW40 46-413, limits assumed); experiment: EIA on coated carrier-free RGMb (summary of specificity)
T4 construct: also called RGMb-CF
T4 sequence (looked up): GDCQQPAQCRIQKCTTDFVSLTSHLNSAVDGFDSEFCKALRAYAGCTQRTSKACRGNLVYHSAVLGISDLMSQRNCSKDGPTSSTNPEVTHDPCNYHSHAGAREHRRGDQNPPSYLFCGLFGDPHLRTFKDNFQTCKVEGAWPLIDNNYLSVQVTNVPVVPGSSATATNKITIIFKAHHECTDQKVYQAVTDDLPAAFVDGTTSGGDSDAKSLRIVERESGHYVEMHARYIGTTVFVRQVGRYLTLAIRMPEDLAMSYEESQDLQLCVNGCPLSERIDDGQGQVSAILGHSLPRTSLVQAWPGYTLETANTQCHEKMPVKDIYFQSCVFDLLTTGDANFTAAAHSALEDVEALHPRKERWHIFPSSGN
Method: as §1

[7] = biological target: T5, mouse:human chimeric antibody (used as human IgG / human IgG Fc antigen); experiment: direct EIA: mouse:human chimeric antibody coated at 1.0 ug/mL; supernatant diluted 1:125; goat anti-mouse IgG Fc-HRPO
T5 construct: also called Hu IgG; human IgG Fc portion
Method: as §2

B1: anti-RGMc 1A-2493-121 monoclonal antibody (antibody, V domains shown)
VH: DVQLQASGPDLVKPSQSLSLTCTVTGYSITSGYSWHWIRQFPGNKLEWMAYIHYTGDSNYNPSLKSRISITRDTSKNQFFLQLTSVTTEDTATYYCALFGLSGYWGQGTLVTVSA
VL: DVLMTQTPLSLPVSLGDQASISCRSSQNIIHSNGNTYLDWYLQKPGQSPKVLIYKVSNRFSGVPDRFSGSGSGTDFILKISRVEAEDLGVYYCLQGSHVPWTFGGGTKLEIKR
- binding result [1]: binds
- binding result [2]: binds

B2: 1A-2151-163 (antibody, V domains shown)
VH: EVQLQQSGPELLKPGASVKISCKASGYSFTDNTIHWVKQSQRKSLEWIGGISPRYGDIRYNVQFKDKATLTVDKSSSTAYMELRSLTSEDSAVYYCTRWDDGYYEDYAMDYWGQGTSVTVSS
VL: DILLTQSPAILSVSPGERVSFSCRASQSIGTSLHWYQQRRNGSPRLLIKYASESISGIPSRFSGSGSGTDFTLSINTVESEDIADYYCQQSNSWPYTFGGGTKLEIKR
- binding result [3]: no binding
- LCPS [4]: 4390 LCPS
- absorbance at 492 nm [5]: 1.25
- binding result [6]: no binding
- absorbance at 492 nm [7]: 0.07

B3: 1A-2258-107 (antibody, V domains shown)
VH: EVQLVESGGGLVKPGGSLKLSCAASGFTFSDYFMFWVRQTPEKRLEWVATISDGGSYTYYSDSVKGRFTISRDNAKNNLFLQMSSLKSEDTAMYYCARDKYGDYDAMDYWGQGTSVTVSS
VL: DVVLTQSPASLAVSLGQRATISCKASQSVDYDSDSYMNWYQQKPGQPPKLLIYAASNLESGIPARFSGGGSGTDFTLNIHPVEEEDAATYYCQQSNEDPPTFGGGTKLEIKR
- binding result [3]: no binding
- LCPS [4]: 2640 LCPS
- binding result [6]: no binding
